For the test, the target named is HCV包膜糖蛋白. Put plainly: cell-based or functional assay.

B1: 全人源抗HCV中和抗体TRN1002 (antibody)
heavy: QVQLVQSGAEVKKPGSSVRVSCKASGGTLGSFAGSWVRQAPGQGLEWIGGIIPMFRRTNYAQKFQGRVTITADESTGTTYLELSSLRSDDTAIYFCAREIPGYCTGGRCFGYFDYWGQGTLVTVSS
light: EIVLTQSPGTLSLSPGESATLSCRASQHVNSNFLAWYQQKRGQTPRLLIYAASSRATGIPDRFSGSGSGTDFTLTISRLEPEDFAVYYCQQYGTSLTFGQGTKVEIK
For the molecule B1, the Luciferase活性 (荧光值), HCVpp感染Huh7细胞 was 100 %.

The values are drawn from patent CN106749645A.
